Publication PMC6047533

Assays:
[1] = target: SHH-E177A (mouse SHH with E177A, expressed from the targeted endogenous locus) (mouse); assay: SDS-resistant cross-linked form on Western blot of tissue extract
[2] = target: SHHN-E176A (N-terminal construct of human SHH with E176A, N-lipid containing, C-lipid lacking) (human); assay: cross-linking

| stoichiometry N [1] | stoichiometry N [2] | Substance |
| --- | --- | --- |
| 2 | – | SHH-E177A (mouse SHH with E177A, expressed from the targeted endogenous locus) (natural protein) |
| – | 2 | SHHN-E176A (N-terminal construct of human SHH with E176A, N-lipid containing, C-lipid lacking) (domain or fragment) |
